Results: the Immune Epitope Database (IEDB)

How the values were obtained:
HLA-B*40:01 = test: IEDB peptide-MHC binding, purified MHC/competitive/radioactivity; filed as Kd, often an IC50 or EC50 that approximates it; ≥ and ≤ were set here for values at or beyond the usual limits of such assays
HLA-A*02:01 = test: IEDB peptide-MHC binding, purified MHC/competitive/fluorescence; ≥ and ≤ were set here for values at or beyond the usual limits of such assays
HLA-A*11:01 = test: IEDB peptide-MHC binding, purified MHC/direct/fluorescence; filed as Kd, often an IC50 or EC50 that approximates it; ≥ and ≤ were set here for values at or beyond the usual limits of such assays; conditions: source organism: Human immunodeficiency virus 1
HLA-A*01:01 [1] = test: as above; conditions: source organism: Human immunodeficiency virus 1
HLA-B*15:01 = test: as above; conditions: source organism: Human immunodeficiency virus 1
HLA-B*44:03 = test: IEDB peptide-MHC binding, purified MHC/competitive/radioactivity; filed as Kd, often an IC50 or EC50 that approximates it; ≥ and ≤ were set here for values at or beyond the usual limits of such assays
HLA-A*32:01 = test: as above; conditions: source organism: Vaccinia virus WR
HLA-B*44:02 = test: as above
HLA-A*02:02 = test: as above; conditions: source organism: Vaccinia virus WR
HLA-A*02:03 = test: as above; conditions: source organism: Vaccinia virus WR
HLA-A*02:06 = test: as above; conditions: source organism: Vaccinia virus WR
HLA-A*23:01 = test: as above
HLA-A*29:02 = test: as above
HLA-A*01:01 [2] = test: as above
HLA-A*30:02 = test: as above
HLA-A*26:01 = test: as above
HLA-A*24:02 = test: as above
[3] = source organism: Dengue virus 2 Jamaica/1409/1983
[4] = source organism: Zaire ebolavirus
[5] = source organism: Dengue virus 1 Brazil/97-11/1997
[6] = source organism: Dengue virus 3 Martinique/1243/1999
[7] = source organism: Lymphocytic choriomeningitis virus (strain Armstrong)
[8] = source organism: SARS coronavirus Tor2
[9] = source organism: Lassa virus GA391
[10] = source organism: Triticum aestivum
[11] = source organism: Dengue virus 4 Philippines/H241/1956

Q: How did the Kd (HLA-B*40:01; [3]) turn out when FEIMDLEKRH was run?
A: 0.59 µM

Q: DFLLQRWGG was tested. Which IC50 (HLA-A*02:01; [4]) did it give?
A: 16.8 µM

Q: VIPVYQVNN was tested. Which IC50 (HLA-A*02:01; [4]) did it give?
A: ≥ 340 µM

Q: Which results are given for TVLDVGDAY?
A: Kd (HLA-A*11:01): 0.436 µM; Kd (HLA-A*01:01 [1]): 10.2 µM; Kd (HLA-B*15:01): 0.17 µM

Q: DNSTHNTPV was tested. Which IC50 (HLA-A*02:01; [4]) did it give?
A: ≥ 456 µM

Q: With NELNHILLE as the sequence, how does the Kd (HLA-B*44:03; [5]) read?
A: 15.3 µM

Q: With LSNYIVSIF as the sequence, how does the Kd (HLA-A*32:01) read?
A: 0.111 µM

Q: Which results are given for RENLLLGVGL?
A: Kd (HLA-B*44:02; [6]): 0.0214 µM; Kd (HLA-B*44:03; [6]): 0.292 µM; Kd (HLA-B*40:01; [6]): 0.00247 µM

Q: How did the Kd (HLA-A*02:02) turn out when VMYAFTTPL was run?
A: 0.000573 µM

Q: And the Kd (HLA-A*32:01)?
A: 0.000291 µM

Q: And the Kd (HLA-A*02:03)?
A: 0.00128 µM

Q: What about the Kd (HLA-A*02:06) of the same sequence?
A: 0.00571 µM

Q: What does the source list for GEIGAIALDF?
A: Kd (HLA-B*44:02; [6]): 0.0136 µM; Kd (HLA-B*44:03; [6]): 0.00892 µM

Q: For EERDDTLTI, which Kd (HLA-B*44:03; [5]) is on record?
A: 1.43 µM

Q: How did the IC50 (HLA-A*02:01; source organism: Vaccinia virus) turn out when NLEDLIEWA was run?
A: ≥ 137 µM

Q: For KELKCGSGI, which Kd (HLA-B*44:02; [3]) is on record?
A: 0.678 µM

Q: What about the Kd (HLA-B*40:01; [3]) of the same sequence?
A: 0.206 µM

Q: How did the IC50 (HLA-A*02:01; [4]) turn out when VISNSVAQA was run?
A: 5.79 µM

Q: What does the source list for REDQWCGSLI?
A: Kd (HLA-B*44:02; [3]): 0.373 µM; Kd (HLA-B*44:03; [3]): 0.888 µM

Q: How did the IC50 (HLA-A*02:01; [4]) turn out when DKIDQIIHD was run?
A: ≥ 387 µM

Q: With HTSGPSVMA as the sequence, how does the IC50 (HLA-A*02:01; source organism: Sudan ebolavirus) read?
A: ≥ 203 µM

Q: Which Kd (HLA-A*23:01; [7]) does the source give for RYQVVECKEV here?
A: ≥ 70 µM

Q: And the Kd (HLA-A*29:02; [7])?
A: ≥ 71.4 µM

Q: What about the Kd (HLA-A*01:01 [2]; [7]) of the same sequence?
A: ≥ 70.4 µM

Q: What about the Kd (HLA-A*30:02; [7]) of the same sequence?
A: 0.159 µM

Q: What about the Kd (HLA-A*26:01; [7]) of the same sequence?
A: ≥ 69.7 µM

Q: What about the Kd (HLA-A*24:02; [7]) of the same sequence?
A: ≥ 70.3 µM

Q: How did the Kd (HLA-A*32:01) turn out when KTINYSFFL was run?
A: ≤ 0.001 µM

Q: With FVSLAIDAY as the sequence, how does the Kd (HLA-A*23:01; [8]) read?
A: ≥ 28.8 µM

Q: And the Kd (HLA-A*29:02; [8])?
A: 0.0216 µM

Q: What about the Kd (HLA-A*01:01 [2]; [8]) of the same sequence?
A: 2.45 µM

Q: And the Kd (HLA-A*30:02; [8])?
A: 0.897 µM

Q: What about the Kd (HLA-A*26:01; [8]) of the same sequence?
A: 1.73 µM

Q: What about the Kd (HLA-A*24:02; [8]) of the same sequence?
A: 17.3 µM

Q: How did the Kd (HLA-A*23:01; [8]) turn out when FFFVYENAF was run?
A: ≥ 24 µM

Q: What about the Kd (HLA-A*29:02; [8]) of the same sequence?
A: ≥ 23.9 µM

Q: And the Kd (HLA-A*01:01 [2]; [8])?
A: 2.67 µM

Q: And the Kd (HLA-A*30:02; [8])?
A: ≥ 96.8 µM

Q: And the Kd (HLA-A*26:01; [8])?
A: 9.24 µM

Q: And the Kd (HLA-A*24:02; [8])?
A: ≥ 60.4 µM

Q: For FEKQLGQIML, which Kd (HLA-B*40:01; [5]) is on record?
A: 0.144 µM

Q: How did the Kd (HLA-B*44:03; [6]) turn out when EEMFKKRNLT was run?
A: 4.53 µM

Q: HTSSMRGVYY was tested. Which Kd (HLA-A*23:01; [8]) did it give?
A: ≥ 70 µM

Q: And the Kd (HLA-A*29:02; [8])?
A: 0.0178 µM

Q: And the Kd (HLA-A*01:01 [2]; [8])?
A: 0.0585 µM

Q: And the Kd (HLA-A*30:02; [8])?
A: 0.0034 µM

Q: What about the Kd (HLA-A*26:01; [8]) of the same sequence?
A: 0.0527 µM

Q: What about the Kd (HLA-A*24:02; [8]) of the same sequence?
A: ≥ 46.8 µM

Q: How did the Kd (HLA-A*23:01; [9]) turn out when VFRTSTPKVV was run?
A: ≥ 70 µM

Q: What about the Kd (HLA-A*29:02; [9]) of the same sequence?
A: ≥ 71.4 µM

Q: What about the Kd (HLA-A*01:01 [2]; [9]) of the same sequence?
A: ≥ 70.4 µM

Q: What about the Kd (HLA-A*30:02; [9]) of the same sequence?
A: ≥ 69.7 µM

Q: And the Kd (HLA-A*26:01; [9])?
A: ≥ 69.7 µM

Q: And the Kd (HLA-A*24:02; [9])?
A: ≥ 70.3 µM

Q: VFNGTSWFI was tested. Which Kd (HLA-A*23:01; [8]) did it give?
A: ≥ 77.8 µM

Q: And the Kd (HLA-A*29:02; [8])?
A: ≥ 45.4 µM

Q: What about the Kd (HLA-A*01:01 [2]; [8]) of the same sequence?
A: ≥ 78.1 µM

Q: And the Kd (HLA-A*30:02; [8])?
A: ≥ 93.8 µM

Q: And the Kd (HLA-A*26:01; [8])?
A: ≥ 77.9 µM

Q: What about the Kd (HLA-A*24:02; [8]) of the same sequence?
A: ≥ 107 µM

Q: With QFLGQQQPF as the sequence, how does the Kd (HLA-A*23:01; [10]) read?
A: 7.75 µM

Q: What about the Kd (HLA-A*29:02; [10]) of the same sequence?
A: 1.47 µM

Q: And the Kd (HLA-A*01:01 [2]; [10])?
A: ≥ 78.1 µM

Q: What about the Kd (HLA-A*30:02; [10]) of the same sequence?
A: 0.831 µM

Q: What about the Kd (HLA-A*26:01; [10]) of the same sequence?
A: ≥ 77.9 µM

Q: And the Kd (HLA-A*24:02; [10])?
A: 0.206 µM

Q: How did the Kd (HLA-B*44:02; [11]) turn out when GESSSNPTI was run?
A: 0.0752 µM

Q: What about the Kd (HLA-B*40:01; [11]) of the same sequence?
A: 0.0168 µM

Q: With CGSVGFNIDY as the sequence, how does the Kd (HLA-A*23:01; [8]) read?
A: ≥ 70 µM

Q: What about the Kd (HLA-A*29:02; [8]) of the same sequence?
A: 0.774 µM

Q: And the Kd (HLA-A*01:01 [2]; [8])?
A: 7.3 µM

Q: What about the Kd (HLA-A*30:02; [8]) of the same sequence?
A: 0.371 µM

Q: What about the Kd (HLA-A*26:01; [8]) of the same sequence?
A: ≥ 20.7 µM

Q: What about the Kd (HLA-A*24:02; [8]) of the same sequence?
A: ≥ 70.3 µM

Q: Which Kd (HLA-A*23:01; [8]) does the source give for VFHLYLQYI here?
A: 0.566 µM

Q: And the Kd (HLA-A*29:02; [8])?
A: ≥ 71.4 µM

Q: And the Kd (HLA-A*01:01 [2]; [8])?
A: 0.198 µM

Q: What about the Kd (HLA-A*30:02; [8]) of the same sequence?
A: ≥ 125 µM

Q: And the Kd (HLA-A*26:01; [8])?
A: 0.0907 µM

Q: And the Kd (HLA-A*24:02; [8])?
A: 1.09 µM
